The text below walks through data of the RNAGym collection of RNA variant scans (doi:10.1021/acssynbio.7b00057).

B1: Pistol ribozyme (parent)
chain: GGGUCGUUGUUCCAUAAUCGCGUGGAUAUGGCACGCAAGUUUCUACCGGGCACCGUAAAUGUCCGACUGGAGCCGUUCGGGCGGCUAUAAACAGACCUCAGGCCCGAAGCGUGGCGGCACCUGCCGCCGGUGGUAAAAAAGAUCGGAAGAGCACACGUCU

This data set covers variants of B1. Nature of the data set: aptazyme ON/OFF ratio, guanine; higher = stronger switching; co-transcriptional cleavage with and without guanine.
As for GGGUCGGUCGGCGAUAAUCGCGUGGAUAUGGCACGCAAGUUUCUACCGGGCACCGUAAAUGUCCGACUGGAGCCGUUCGGGCGGCUAUAAACAGACCUCAGGCCCGAAGCGUGGCGGCACCUGCCGCCGGUGGUAAAAAAGAUCGGAAGAGCACACGUCU [U7G G9C U10G U11G C13G], the “aptazyme ON/OFF ratio” value amounted to 1.21.
With GGGUCGGUCGGCAAUAAUCGCGUGGAUAUGGCACGCAAGUUUCUACCGGGCACCGUAAAUGUCCGACUGGAGCCGUUCGGGCGGCUAUAAACAGACCUCAGGCCCGAAGCGUGGCGGCACCUGCCGCCGGUGGUAAAAAAGAUCGGAAGAGCACACGUCU [U7G G9C U10G U11G C13A], the “aptazyme ON/OFF ratio” value stood at 1.17.
Then GGGUCGGUCGGCUAUAAUCGCGUGGAUAUGGCACGCAAGUUUCUACCGGGCACCGUAAAUGUCCGACUGGAGCCGUUCGGGCGGCUAUAAACAGACCUCAGGCCCGAAGCGUGGCGGCACCUGCCGCCGGUGGUAAAAAAGAUCGGAAGAGCACACGUCU [U7G G9C U10G U11G C13U], with 1.36.
Then GGGUCGGUCGGUAAUAAUCGCGUGGAUAUGGCACGCAAGUUUCUACCGGGCACCGUAAAUGUCCGACUGGAGCCGUUCGGGCGGCUAUAAACAGACCUCAGGCCCGAAGCGUGGCGGCACCUGCCGCCGGUGGUAAAAAAGAUCGGAAGAGCACACGUCU [U7G G9C U10G U11G C12U C13A], with 1.15; and GGGUCGGUCGGUGAUAAUCGCGUGGAUAUGGCACGCAAGUUUCUACCGGGCACCGUAAAUGUCCGACUGGAGCCGUUCGGGCGGCUAUAAACAGACCUCAGGCCCGAAGCGUGGCGGCACCUGCCGCCGGUGGUAAAAAAGAUCGGAAGAGCACACGUCU [U7G G9C U10G U11G C12U C13G], with 1.1; and GGGUCGGUCGGUUAUAAUCGCGUGGAUAUGGCACGCAAGUUUCUACCGGGCACCGUAAAUGUCCGACUGGAGCCGUUCGGGCGGCUAUAAACAGACCUCAGGCCCGAAGCGUGGCGGCACCUGCCGCCGGUGGUAAAAAAGAUCGGAAGAGCACACGUCU [U7G G9C U10G U11G C12U C13U], with 1.24.
For the variant GGGUCGGUCUACCAUAAUCGCGUGGAUAUGGCACGCAAGUUUCUACCGGGCACCGUAAAUGUCCGACUGGAGCCGUUCGGGCGGCUAUAAACAGACCUCAGGCCCGAAGCGUGGCGGCACCUGCCGCCGGUGGUAAAAAAGAUCGGAAGAGCACACGUCU [U7G G9C U11A], the “aptazyme ON/OFF ratio” value was 2.57.
Then GGGUCGGUCUCCCAUAAUCGCGUGGAUAUGGCACGCAAGUUUCUACCGGGCACCGUAAAUGUCCGACUGGAGCCGUUCGGGCGGCUAUAAACAGACCUCAGGCCCGAAGCGUGGCGGCACCUGCCGCCGGUGGUAAAAAAGAUCGGAAGAGCACACGUCU [U7G G9C U11C], with 2.53; and GGGUCGGUCUAAGAUAAUCGCGUGGAUAUGGCACGCAAGUUUCUACCGGGCACCGUAAAUGUCCGACUGGAGCCGUUCGGGCGGCUAUAAACAGACCUCAGGCCCGAAGCGUGGCGGCACCUGCCGCCGGUGGUAAAAAAGAUCGGAAGAGCACACGUCU [U7G G9C U11A C12A C13G], with 1.27.
As to GGGUCGGUCUAAAAUAAUCGCGUGGAUAUGGCACGCAAGUUUCUACCGGGCACCGUAAAUGUCCGACUGGAGCCGUUCGGGCGGCUAUAAACAGACCUCAGGCCCGAAGCGUGGCGGCACCUGCCGCCGGUGGUAAAAAAGAUCGGAAGAGCACACGUCU [U7G G9C U11A C12A C13A], the “aptazyme ON/OFF ratio” value came out at 1.35.
Take GGGUCGGUCUAAUAUAAUCGCGUGGAUAUGGCACGCAAGUUUCUACCGGGCACCGUAAAUGUCCGACUGGAGCCGUUCGGGCGGCUAUAAACAGACCUCAGGCCCGAAGCGUGGCGGCACCUGCCGCCGGUGGUAAAAAAGAUCGGAAGAGCACACGUCU [U7G G9C U11A C12A C13U]: the “aptazyme ON/OFF ratio” value is 1.52.
GGGUCGGUCUCGCAUAAUCGCGUGGAUAUGGCACGCAAGUUUCUACCGGGCACCGUAAAUGUCCGACUGGAGCCGUUCGGGCGGCUAUAAACAGACCUCAGGCCCGAAGCGUGGCGGCACCUGCCGCCGGUGGUAAAAAAGAUCGGAAGAGCACACGUCU [U7G G9C U11C C12G]: the “aptazyme ON/OFF ratio” value came to 1.65.
Then GGGUCGGUCUCACAUAAUCGCGUGGAUAUGGCACGCAAGUUUCUACCGGGCACCGUAAAUGUCCGACUGGAGCCGUUCGGGCGGCUAUAAACAGACCUCAGGCCCGAAGCGUGGCGGCACCUGCCGCCGGUGGUAAAAAAGAUCGGAAGAGCACACGUCU [U7G G9C U11C C12A], with 2.21.
The same measure for GGGUCGGUCGGGGAUAAUCGCGUGGAUAUGGCACGCAAGUUUCUACCGGGCACCGUAAAUGUCCGACUGGAGCCGUUCGGGCGGCUAUAAACAGACCUCAGGCCCGAAGCGUGGCGGCACCUGCCGCCGGUGGUAAAAAAGAUCGGAAGAGCACACGUCU [U7G G9C U10G U11G C12G C13G]: 1.06; for GGGUCGGUCGGGAAUAAUCGCGUGGAUAUGGCACGCAAGUUUCUACCGGGCACCGUAAAUGUCCGACUGGAGCCGUUCGGGCGGCUAUAAACAGACCUCAGGCCCGAAGCGUGGCGGCACCUGCCGCCGGUGGUAAAAAAGAUCGGAAGAGCACACGUCU [U7G G9C U10G U11G C12G C13A]: 1.11; for GGGUCGGUCGGGUAUAAUCGCGUGGAUAUGGCACGCAAGUUUCUACCGGGCACCGUAAAUGUCCGACUGGAGCCGUUCGGGCGGCUAUAAACAGACCUCAGGCCCGAAGCGUGGCGGCACCUGCCGCCGGUGGUAAAAAAGAUCGGAAGAGCACACGUCU [U7G G9C U10G U11G C12G C13U]: 1.12.
For the variant GGGUCGGUCGGAUAUAAUCGCGUGGAUAUGGCACGCAAGUUUCUACCGGGCACCGUAAAUGUCCGACUGGAGCCGUUCGGGCGGCUAUAAACAGACCUCAGGCCCGAAGCGUGGCGGCACCUGCCGCCGGUGGUAAAAAAGAUCGGAAGAGCACACGUCU [U7G G9C U10G U11G C12A C13U], the “aptazyme ON/OFF ratio” value turned out to be 1.12.
Regarding GGGUCGGUCGGAGAUAAUCGCGUGGAUAUGGCACGCAAGUUUCUACCGGGCACCGUAAAUGUCCGACUGGAGCCGUUCGGGCGGCUAUAAACAGACCUCAGGCCCGAAGCGUGGCGGCACCUGCCGCCGGUGGUAAAAAAGAUCGGAAGAGCACACGUCU [U7G G9C U10G U11G C12A C13G], the “aptazyme ON/OFF ratio” value was 1.13.
